The record followed here is article PMC7116857.

Where only a bound is given, the exact number is not on record here.

The target in the assay is wild-type alpha-synuclein (UniProt P37840). Description: microfluidic free-flow electrophoresis.

With “wild-type alpha-synuclein (from UniProt P37840 1-140) (natural protein)”, the oligomer concentration (aptamer-bound, 1:1 assumed) was less than 80 nM.
